Assay [1] has as its target T1, IL-13 (human IL-13, preparation not specified) (human, UniProt P35225 35-146, limits assumed). Briefly: cell-based or functional assay.
The target in the next assay is T2, mouse IL-13 (mouse, UniProt P20109 21-131, limits assumed).
T2 sequence (looked up): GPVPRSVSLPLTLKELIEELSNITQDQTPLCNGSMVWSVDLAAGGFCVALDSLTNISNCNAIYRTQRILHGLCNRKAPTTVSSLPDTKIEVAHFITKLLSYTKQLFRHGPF
Description: ELISA, epitope mapping with chimeras. A general note: In an ELISA, binding on a coated surface is turned into a signal by an enzyme label.

The target in assay [2] is T3, Human IL-13-Mouse IL-13 Helix D chimera (human with mouse Helix D).
T3 construct: also called Mo HelixD
T3 chain: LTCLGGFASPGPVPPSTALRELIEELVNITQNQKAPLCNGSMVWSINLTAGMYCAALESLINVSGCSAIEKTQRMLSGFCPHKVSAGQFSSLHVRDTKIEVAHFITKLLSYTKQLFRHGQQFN
Description: ELISA on secreted chimeric IL-13.

The target of assay [3] is T4, native human IL-13 (human, UniProt P35225 25-146).
T4 construct: mature; Secreted by stimulated PBMCs; also called hIL-13 (KinExA)
Briefly: KinExA, Kinetic Direct method. (In general: Kinetic exclusion samples the free partner from a solution-phase mixture.)

Assay [4] has as its target T4, native human IL-13. Briefly: KinExA, Kinetic inject method.
For assay [5], the target named is T4, native human IL-13. Briefly: KinExA equilibrium in solution.
In assay [6] the target is T5, native macaque monkey IL-13 (macaque monkey, UniProt Q0PW92 19-132).
T5 construct: also called native macaque IL-13
T5 sequence (Q0PW92 entry or part of it limits assumed): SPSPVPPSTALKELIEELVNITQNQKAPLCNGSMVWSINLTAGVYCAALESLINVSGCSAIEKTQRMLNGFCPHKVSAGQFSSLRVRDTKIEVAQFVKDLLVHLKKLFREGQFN
Briefly: KinExA equilibrium in solution.

In assay [7] the target is T4, native human IL-13. Description: KinExA, Kinetic Direct method (KD repeated from Table 10).
Assay [8] addresses T4, native human IL-13. Description: KinExA, Kinetic Direct method; calculated from kon and KD.
For assay [9], the target named is T4, native human IL-13. Briefly: KinExA, Kinetic inject method (KD repeated from Table 10).
The target of assay [10] is T4, native human IL-13. Briefly: KinExA, Kinetic inject method; calculated from kon and KD.
Assay [11] deals with T6, Recombinant Human IL-13 (R&D 213-IL-005) (human, UniProt P35225 35-146). Description: Biacore 2000, mAb captured on goat anti-human surface, IL-13 (R&D) injected, 1:1 fit.
T6 sequence (P35225 35-146 limits assumed): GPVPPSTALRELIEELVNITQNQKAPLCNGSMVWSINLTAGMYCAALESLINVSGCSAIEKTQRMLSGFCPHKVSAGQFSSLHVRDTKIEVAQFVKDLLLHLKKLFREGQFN
The target in assay [12] is T7, Human IL-13-rabbit Fc fusion protein (human).
T7 construct: also called IL-13-RbFc; IL-13RbFc
T7 sequence (chain, as listed by the source limits assumed): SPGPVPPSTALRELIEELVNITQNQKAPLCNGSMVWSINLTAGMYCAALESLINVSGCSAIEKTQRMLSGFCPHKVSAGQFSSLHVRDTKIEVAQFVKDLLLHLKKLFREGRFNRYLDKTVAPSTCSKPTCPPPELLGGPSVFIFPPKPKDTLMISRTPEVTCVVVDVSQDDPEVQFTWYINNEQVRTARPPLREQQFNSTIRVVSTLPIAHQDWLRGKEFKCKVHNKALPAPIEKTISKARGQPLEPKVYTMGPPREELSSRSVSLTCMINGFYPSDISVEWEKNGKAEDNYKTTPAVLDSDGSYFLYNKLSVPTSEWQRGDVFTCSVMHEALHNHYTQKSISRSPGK
Briefly: ELISA on plates coated with IL-13RbFc, antibody without soluble competitor, detection rabbit anti Hu IgG Fc HRP.

In assay [13] the target is T1, IL-13 (human IL-13, preparation not …). Description: cell-based or functional assay. This is another data set of the same source.
In assay [14] the target is T6, Recombinant Human IL-13 (R&D 213-IL-005). Briefly: Biacore 2000, mAb captured on goat anti-human surface, IL-13 (R&D) injected, 1:1 fit; first run.
For assay [15] the target is unchanged. Description: Biacore 2000, mAb captured on goat anti-human surface, IL-13 (R&D) injected, 1:1 fit; second run. In general terms: In SPR one partner is held on a chip, and binding of the other changes the refractive index at the surface.

Changes are numbered by the printed parent chain.

T1 sequence (P35225 35-146 limits assumed): as the sequence (P35225 35-146 limits assumed) above

B1: antibody 785 (antibody, V domains shown)
VH: not shown
VL: SYVLTQPPSVSVAPGQTARITCGGNNIGNKIVHWYQQKPGQAPVLVVYDDSDRPSGIPERFSGSNSGNTATLTISRVEAGDEADYYCQVWDSSSDHVVFGGGTKLTVL
notes: lambda light chain
Turning to B1, in [1], the “IC50, Eotaxin-1 assay, Average” value is 0.176 nM; the “IC50, Eotaxin-1 assay, n = 1” value stood at 0.223 nM; the “IC50, Eotaxin-1 assay, n = 2” value was found to be 0.144 nM; the “IC50, Eotaxin-1 assay, n = 3” value was 0.16 nM. Also, the binding result in the assay with mouse IL-13 is reported as “no binding”. For the same molecule, in [2], the binding result is “no binding”.

B2: antibody 11.18.3 (antibody, V domains shown)
VH: QVQLVESGGGVVQPGRSLRLSCVASGFTFSSYDMHWVRQAPGKGLEWVAVIWYDGSNKYYADSVQGRFTISRDNSKNTLYLQMNSLRAEDTAVYYCTSEDSSGWYDGWFDPWGQGTLVTVSS
VL: DIQMTQSPSSLSASVGDRVTITCRASQGISNYLAWYQQKPGKVPKVLIYAASTLQSGVPSRFSGSGSGTDFTLTISSLQPEDVATYYCQKYNSAPFTFGPGTKVDIK
Regarding B2, in assay [1], the “IC50, Eotaxin-1 assay, Average” value is 0.245 nM; the “IC50, Eotaxin-1 assay, n = 1” value came out at 0.213 nM; the “IC50, Eotaxin-1 assay, n = 2” value was found to be 0.304 nM; the “IC50, Eotaxin-1 assay, n = 3” value amounted to 0.217 nM.

B3: antibody 623 (antibody, V domains shown)
VH: EVQLVESGGGLVKPGGSLRLSCAASGFTFSNAWMSWVRQAPGKGLEWVGRIRSEIDGGTTNYAAPVKGRFTISRDDSKNTLYLQMNSLKTEDTAVYYCATDQVGAYYGDYYGMDVWGQGTLVTVSS
VL: SYELTQPPSVSVSPGQTARITCSGDALPEKYAYWYQQKSGQAPVLVIYEDSKRPSGIPERFSGSSSGTMATLTISGAQVEDEADYYCHSTDSSGNHGVFGGGTKLTVL
As usually defined, the kon is the second-order rate constant of association. Broadly, the Kd is a measure of binding affinity in units of concentration. By koff is commonly meant a measure of how fast the partners let go of each other. Turning to B3, the “IC50, Eotaxin-1 assay, Average” value in assay [1] is 0.036 nM. In addition, in assay [1], the “IC50, Eotaxin-1 assay, n = 1” value was determined as 0.031 nM. Further, in assay [1], the “IC50, Eotaxin-1 assay, n = 2” value is 0.04 nM. Besides, the “IC50, Eotaxin-1 assay, n = 3” value in [1] is 0.035 nM. In addition, the kon in the assay with native human IL-13 [3] came to 1.1e+07 M⁻¹ s⁻¹; with native human IL-13 [4], 1.5e+07 M⁻¹ s⁻¹; in assay [11], 4.9e+06 M⁻¹ s⁻¹. Further, the equilibrium dissociation constant (Kd) came to 0.024 nM in the assay with native human IL-13 [5]; 0.037 nM in assay [6]; 0.024 nM in the assay with native human IL-13 [7]; 0.024 nM with native human IL-13 [9]; 0.052 nM in assay [11]. In addition, the binding result with mouse IL-13 was “no binding”; in [12], “binds”. Also, the koff with native human IL-13 [8] is 0.00027 s⁻¹; with native human IL-13 [10], 0.00036 s⁻¹; in assay [11] it was 0.00025 s⁻¹.

B4: antibody 643 (antibody, V domains shown)
VH: B3 VH with K89R
VL: B3 VL
notes: also called Ab 643; mAb 643
As for B4, in assay [1], the “IC50, Eotaxin-1 assay, Average” value stood at 0.035 nM; the “IC50, Eotaxin-1 assay, n = 1” value is 0.044 nM; the “IC50, Eotaxin-1 assay, n = 2” value stood at 0.028 nM; the “IC50, Eotaxin-1 assay, n = 3” value worked out at 0.033 nM. In assay [13], the “IC50 (read off the curve)” value was approximately 0.03 nM. Also, the Kd in the assay with native human IL-13 [5] stood at 0.013 nM. In the assay with mouse IL-13, the binding result was “no binding”. Moreover, in assay [11], the dissociation constant (Kd) worked out at 0.066 nM, the koff worked out at 0.00029 s⁻¹ and the kon turned out to be 4.4e+06 M⁻¹ s⁻¹.

B5: antibody 602 (antibody, V domains shown)
VH: B3 VH with E54K, T60I
VL: B3 VL with S51T, H88Y
notes: also called mAb 602
On to B5, for which, in assay [1], the “IC50, Eotaxin-1 assay, Average” value is 0.066 nM; the “IC50, Eotaxin-1 assay, n = 1” value is 0.08 nM; the “IC50, Eotaxin-1 assay, n = 2” value was 0.053 nM. The binding result with mouse IL-13 is given as “no binding”. Also, in assay [11], the Kd was 0.172 nM, the koff was found to be 0.00051 s⁻¹ and the association rate constant (kon) stood at 3e+06 M⁻¹ s⁻¹.

B6: antibody 693 (antibody, V domains shown)
VH: QVQLQESGPGLVKPSETLSLTCSVSGGSISSYYWSWIRQPAGKGLEWIGRIYMTGRTNYNSSLKSRVTMSIDTSKNQLSLKLSFMTAADTAVYYCARESGSSYSYDYWGQGTLVTVSS
VL: SYVLTQPPSVSVAPGQTARITCGGNNIGSKGVHWYQQKPGQAPVLVVYDDSDRPSGIPERFSGSNSGNTATLTISRVEAGDEADYYCQVWVSSSDHHVVFGGGTKLTVV
notes: also called sc693
In the case of B6, in assay [1], the “IC50, Eotaxin-1 assay, Average” value stood at 0.054 nM; the “IC50, Eotaxin-1 assay, n = 1” value was determined as 0.038 nM; the “IC50, Eotaxin-1 assay, n = 2” value worked out at 0.069 nM; the “IC50, Eotaxin-1 assay, n = 3” value came out at 0.053 nM. For the same molecule, the binding result with mouse IL-13 is “no binding”. In addition, the binding result in assay [2] is “no binding”. In addition, in assay [14], the equilibrium dissociation constant (Kd) was determined as 0.189 nM, the off-rate (koff) was 0.00038 s⁻¹ and the kon came to 2e+06 M⁻¹ s⁻¹. In assay [15], the dissociation constant (Kd) was 0.109 nM, the koff amounted to 0.00027 s⁻¹ and the on-rate constant (kon) was found to be 2.5e+06 M⁻¹ s⁻¹.

B7: antibody 353 (antibody, V domains shown)
VH: QVQLQESGPGLVKPSETLSLTCTVSGGSISTYYWSWIRQPPGKGLEWIGYIYYSGSTNYNPSLKSRVTISVDTSKNQFSLKLSSVTAADTAVYYCARDGGHYWDDAFDIWGQGTMVTVSS
VL: DIQMTQSPSSLSASVGDRVTITCRASQGIRNDLDWYQQKPGKAPKRLIYDASSLQSGVPSRFSGSGSGTEFTLTISSLQPEDFATYYCLQHDSYPFTFGPGTKVDIK
Turning to B7, in [1], the “IC50, Eotaxin-1 assay, Average” value is 0.101 nM; the “IC50, Eotaxin-1 assay, n = 1” value stood at 0.099 nM; the “IC50, Eotaxin-1 assay, n = 2” value turned out to be 0.123 nM; the “IC50, Eotaxin-1 assay, n = 3” value is 0.08 nM.

The values above are taken from patent publication US20220281966A1 (Amgen, published 2022).
